Test results reported in patent US9822149B2, “Polypeptide having multiple directionality and self-assembled nanostructure containing the same” (INDUSTRY-ACADEMIC COOPERATION FOUNDATION, YONSEI UNIVERSITY, priority 2014, dated 2017).
Non-standard residues stand in square brackets, D forms with d. No end group written: not given here. ebes = not defined here

Tests used:
Assay type in all cases: physicochemical
[1] = Transmission electron microscopy (TEM) of negatively stained aggregate
Source text: The insert is an enlarged image.

[2] = Small-angle X-ray scattering (SAXS) of polypeptide in solution
Procedure: The black circles represent experimental data and the red line represents X-ray scattering data of the most likely model obtained using DAMMIF.
As shown in FIG. 10 and FIG. 11, a form factor (P(q)) and an electron pair distance distribution function p(r) were obtained to investigate the shape and size of the polypeptide prepared in Example 2 (ODβ-S).
For the polypeptide prepared in Example 2 (ODβ-S), Rg,p(r) was calculated to be 11.01±0.078 Å and Dmax was calculated to be 34.0 Å.

[3] = Diffusion-ordered spectroscopy (DOSY) in solution

With “Comparative Example 2: comparative naturally directed β-α-β polypeptide WKWEWYWKWEW-GSGS-A(EAAAK)2A-GS-... (SEQ ID NOS 13 and 3) (chain 1 WKWEWYWKWEWGSGSAEAAAKEAAAKAGSK; chain 2 WEWKWYWEWKW; also: chain 2 joined at Lys30 side chain (εK branch))” the aggregate morphology [1] was “forms a heterogeneous structure and exists mainly as large-sized aggregates”.
In the case of “Example 2: short polypeptide WKWEW-GSGS-(ebes)GS-εK- with oppositely directed WEWKW (SEQ ID NOS 9 and 10) (chain 1 WKWEWGSGS[ebes]GSK; numbers in words are those of the source; reading uncertain; also: K12 εK branch carrying oppositely directed WEWKW strand (chain 2), printed as WKWEW-GSGS-(ebes)GS-εK-)”, the aggregation state [2] is reported as “exists as monomers rather than as aggregates”, the Dmax ([2]; from p(r)) is reported as 34.0 Å and the “Rg,p(r)” value ([2]; from p(r) using GNOM) is reported as 11.01±0.078 Å. For the same substance, the “D (diffusion coefficient)” value [3] was 1.625×10^−10 m^2/s and the “hydrodynamic radius R(H)” value [3] was 12.27 Å.
